{"source": "patent US9549967B2", "about": "“Regulation of sodium channels by PLUNC proteins” (The University of North Carolina at Chapel Hill, priority 2009, dated 2017)", "molecules": {"B1": {"name": "SPLUNC1: human SPLUNC1, 256 amino acid secreted PLUNC protein (SEQ ID NO:1); rSPLUNC1 = V5/6His-tagged protein purified from HEK293 media (protein, listed as Homo sapiens)", "chain": "MFQTGGLIVFYGLLAQTMAQFGGLPVPLDQTLPLNVNPALPLSPTGLAGSLTNALSNGLLSGGLLGILENLPLLDILKPGGGTSGGLLGGLLGKVTSVIPGLNNIIDIKVTDPQLLELGLVQSPDGHRLYVTIPLGIKLQVNTPLVGASLLRLAVKLDITAEILAVRDKQERIHLVLGDCTHSPGSLQISLLDGLGPLPIQGLLDSLTGILNKVLPELVQGNVCPLVNEVLRGLDITLVHDIVNMLIHGLQFVIKV", "modifications": "V5/6His tag", "notes": "rSPLUNC1 = V5/6His-tagged protein purified from HEK293 media"}}, "key": {"trypsin": {"test_system": "trypsin", "test": "Cell-free fluorogenic assay of BGAR-MCA cleavage by trypsin", "assay_type": "biochemical", "details": "50 ng/ml rSPLUNC1; 1.0 or 0.3 U/ml trypsin", "procedure": "For cell-free assays, reactions were carried out in 50 μl Ringer in a 96 well plate format with 100 μM BGAR-MCA. To measure endogenous protease activity in human bronchial epithelial cultures, 30 μl Ringer with 100 μM BGAR-MCA were placed directly onto the mucosal surfaces of human bronchial epithelial cultures grown on 12 mm T-clear inserts and the cultures were assayed in 12 well plates."}, "CFTR": {"molecular_target": "T1, CFTR (Homo sapiens, UniProt P13569)", "T1 construct": "expressed in transfected cells; host or cells: Xenopus laevis oocytes", "T1 sequence (P13569 whole entry, species assumed)": "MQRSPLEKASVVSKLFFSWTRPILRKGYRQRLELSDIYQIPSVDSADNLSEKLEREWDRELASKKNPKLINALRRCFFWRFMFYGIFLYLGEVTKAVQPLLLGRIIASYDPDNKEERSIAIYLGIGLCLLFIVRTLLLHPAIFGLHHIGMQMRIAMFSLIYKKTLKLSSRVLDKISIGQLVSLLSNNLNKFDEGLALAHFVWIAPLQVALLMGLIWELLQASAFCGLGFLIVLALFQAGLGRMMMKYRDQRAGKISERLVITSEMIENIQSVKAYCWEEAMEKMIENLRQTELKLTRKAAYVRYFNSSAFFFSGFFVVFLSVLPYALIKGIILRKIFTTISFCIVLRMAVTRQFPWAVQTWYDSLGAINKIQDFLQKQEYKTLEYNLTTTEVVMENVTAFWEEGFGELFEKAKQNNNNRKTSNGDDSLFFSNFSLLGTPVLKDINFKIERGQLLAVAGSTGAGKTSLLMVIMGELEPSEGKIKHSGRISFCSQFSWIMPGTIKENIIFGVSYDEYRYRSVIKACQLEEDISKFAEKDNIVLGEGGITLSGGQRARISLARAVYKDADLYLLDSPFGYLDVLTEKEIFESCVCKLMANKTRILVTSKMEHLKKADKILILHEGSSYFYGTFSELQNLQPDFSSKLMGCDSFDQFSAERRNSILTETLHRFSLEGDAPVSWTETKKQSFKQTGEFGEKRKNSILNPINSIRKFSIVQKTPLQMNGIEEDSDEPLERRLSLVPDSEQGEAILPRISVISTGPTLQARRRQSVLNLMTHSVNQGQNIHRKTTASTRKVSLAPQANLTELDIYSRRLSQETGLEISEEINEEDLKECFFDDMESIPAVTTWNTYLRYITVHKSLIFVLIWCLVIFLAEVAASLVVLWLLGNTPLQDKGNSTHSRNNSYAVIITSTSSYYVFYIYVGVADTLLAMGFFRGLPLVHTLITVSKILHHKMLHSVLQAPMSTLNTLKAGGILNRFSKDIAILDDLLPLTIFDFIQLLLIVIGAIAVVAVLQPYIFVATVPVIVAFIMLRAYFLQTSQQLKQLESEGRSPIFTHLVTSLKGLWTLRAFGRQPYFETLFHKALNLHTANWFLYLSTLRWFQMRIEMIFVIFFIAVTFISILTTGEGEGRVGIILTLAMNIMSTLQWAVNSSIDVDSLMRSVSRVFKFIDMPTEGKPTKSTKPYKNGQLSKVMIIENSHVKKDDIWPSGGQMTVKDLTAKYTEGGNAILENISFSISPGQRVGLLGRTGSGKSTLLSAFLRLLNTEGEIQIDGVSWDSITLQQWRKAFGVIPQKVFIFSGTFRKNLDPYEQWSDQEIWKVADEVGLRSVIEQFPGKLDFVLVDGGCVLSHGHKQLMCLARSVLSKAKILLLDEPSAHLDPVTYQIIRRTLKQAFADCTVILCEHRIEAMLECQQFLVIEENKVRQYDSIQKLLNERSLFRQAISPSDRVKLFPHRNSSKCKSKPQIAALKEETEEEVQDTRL", "test": "CFTR activity in Xenopus oocytes co-expressing CFTR and β2 adrenergic receptor", "assay_type": "cell-based", "details": "after 10 μM isoproterenol", "procedure": "Oocyte studies. Xenopus laevis oocytes were harvested and injected as described (Donaldson, et al., J. Biol. Chem. 277:8338 (2002)). Defolliculated healthy stage V-VI oocytes were injected with 0.3 ng of cRNA of each ENaC subunit. Injected oocytes were kept in modified Barth's saline (in mM: 88 NaCl, 1 KCl, 2.4 NaHCO3, 0.3 Ca(NO3)2, 0.41 CaCl2, 0.82 MgSO4, and 15 HEPES, adjusted to pH 7.35 with Tris). Oocytes were studied 24 hr after injection using the two electrode voltage clamp technique as previously described (Donaldson, et al., J. Biol. Chem. 277:8338 (2002)). Oocytes were clamped at a holding potential of […]. The change in amiloride-sensitive whole cell current as an indicator of ENaC activity was determined by subtracting the corresponding current value measured in the presence of 10 μM amiloride from that measured before the application of amiloride.\nIn both cases, we co-expressed CFTR with the β2 adrenergic receptor (β2AR) which can be stimulated with isoproterenol to raise cAMP and stimulate CFTR (Uezono et al., Receptors Channels 1:233 (1993))."}, "[1]": {"test_system": "human bronchial epithelial cultures", "test": "Airway surface liquid height by confocal microscopy in human bronchial epithelial cultures", "assay_type": "cell-based", "details": "SPLUNC1 knockdown cultures; 50 ng/ml rSPLUNC1 added to airway surface liquid", "description": "shRNA-induced knockdown of SPLUNC1: Our strategy was to select shRNA sequences from Dharmacon that targeted SPLUNC1 effectively by using transient siRNA in an immortalized human airway epithelial cell line (denoted AALEB) (Lundberg et al., Oncogene 21:4577 (2002)). […] Passage-1 airway cells surviving one week of selection were then trypsinized and plated down on 12 mm T-clear inserts and differentiated under air liquid interface conditions. At the time of the functional assays, we measured airway surface liquid SPLUNC1 protein levels by Western blot to verify stable knockdown. An anti-luciferase shRNA-expressing adenovirus was infected separately as a control.\nConfocal microscopy: To label airway surface liquid, Ringer containing Texas Red-dextran (2 mg/ml; Invitrogen) was added to human bronchial epithelial culture mucosal surfaces. Perfluorocarbon was added mucosally to prevent evaporation of the airway surface liquid and the culture placed in a chamber containing 100 μl Ringer on the stage of a Leica SP5 confocal microscope with a 63× glycerol immersion objective. 5 points per culture were scanned and an average airway surface liquid height determined. For confocal microscopy human bronchial epithelial cultures were bathed serosally in a modified Ringer solution containing (mM): 116 NaCl, 10 NaHCO3, 5.1 KCl, 1.2 CaCl2, 1.2 MgCl2, 20 TES, 10 glucose, pH 7.4). […]"}}, "data": [{"molecule": "B1", "values": [{"measurement": "effect on the ability of trypsin to cleave fluorogenic substrate BGAR-MCA", "setting": "trypsin", "value": "~10", "unit": "%"}, {"measurement": "effect on CFTR activity", "setting": "CFTR; 5 ng/ml rSPLUNC1 exposure", "value": "no inhibitory effect"}, {"measurement": "effect on CFTR activity", "setting": "CFTR; injection of SPLUNC1 cRNA", "value": "no inhibitory effect"}, {"measurement": "regulation of airway surface liquid height", "setting": "[1]", "value": "restored"}]}]}
